Test results reported in US20090169570A1 (BIOTEST, published 2009).
Values joined by “and” are separate entries in the source; they are usually repeats but may differ in a detail not shown here. Equal values may be shown once.

B1: nBT062-SPDB-DM4 (antibody, human IgG4, kappa, V domains shown)
VH: QVQLQQSGSELMMPGASVKISCKATGYTFSNYWIEWVKQRPGHGLEWIGEILPGTGRTIYNEKFKGKATFTADISSNTVQMQLSSLTSEDSAVYYCARRDYYGNFYYAMDYWGQGTSVTVSS
VL: DIQMTQSTSSLSASLGDRVTISCSASQGINNYLNWYQQKPDGTVELLIYYTSTLQSGVPSRFSGSGSGTDYSLTISNLEPEDIGTYYCQQYSKLPRTFGGGTKLEIKR
modifications: maytansinoid DM4 attached via SPDB (disulfide) linker; attachment residues and chain not stated
B2: nBT062-SPP-DM1 (antibody, human IgG4, kappa, V domains shown)
VH: B1 VH
VL: B1 VL
modifications: maytansinoid DM1 attached via SPP (disulfide) linker; attachment residues and chain not stated; average of 3.5 DM1 per antibody stated for nBT062-DM1
B3: nBT062-SMCC-DM1 (antibody, human IgG4, kappa, V domains shown)
VH: B1 VH
VL: B1 VL
modifications: maytansinoid DM1 attached via SMCC (non-cleavable) linker; attachment residues and chain not stated; average of 3.5 DM1 per antibody stated for nBT062-DM1
B4: nBT062 (antibody, human IgG4, kappa, V domains shown)
VH: B1 VH
VL: B1 VL
notes: also called cB-B4; chimeric B-B4
B5: B-B4-SPP-DM1 (antibody, V domains shown)
VH: B1 VH
VL: DIQMTQSTSSLSASLGDRVTISCSASQGINNYLNWYQQKPDGTVELLIYYTSTLQSGVPSRFSGSGSGTDYSLTISNLEPEDIGTYYCQQYSKLPRTFGGGTKLEIK
modifications: maytansinoid DM1 attached via SPP (disulfide) linker; attachment residues and chain not stated
notes: the variable domain limits are inferred as for B-B4

Columns and labels:
[1] = molecular target: T1, CD138 expressed on the cell surface (OPM-2, MOLP-8 cells) (human, UniProt P18827 23-310); assay: cell-based or functional assay
T1 sequence (looked up): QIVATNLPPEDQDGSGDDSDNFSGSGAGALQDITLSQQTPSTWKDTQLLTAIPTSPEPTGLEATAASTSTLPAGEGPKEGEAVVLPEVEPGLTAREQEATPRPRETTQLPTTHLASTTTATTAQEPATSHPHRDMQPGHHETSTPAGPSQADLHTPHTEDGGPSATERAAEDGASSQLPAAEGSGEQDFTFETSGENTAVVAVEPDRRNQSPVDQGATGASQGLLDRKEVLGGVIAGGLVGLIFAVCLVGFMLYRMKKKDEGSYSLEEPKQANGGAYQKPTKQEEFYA

[2] = molecular target: T1, CD138 expressed on the cell surface …; assay: FACS on CD138+ OPM-2 cells, fluorescence-labeled secondary antibody, mean fluorescence against concentration
Text: The mean fluorescence measured in these experiments was plotted against the antibody concentration.
In FIG. 6, the mean fluorescences as measure for the amount of cell bound antibody is plotted against different antibody or conjugate concentrations.

[3] = molecular target: T2, Soluble CD138 antigen from U-266 cell culture supernatant, biotinylated (human, UniProt P18827 23-245, limits assumed, biotinylated on primary amino groups with Sulfo-NHS-LC-Biotin); assay: SPR (BIACORE C), biotinylated soluble CD138 on streptavidin chip, conjugate as analyte at 3.13-100 nM
T2 construct: This is the soluble form in the supernatant of the human MM cell line U-266; also called bCD138; biotinylated CD138
T2 sequence (looked up): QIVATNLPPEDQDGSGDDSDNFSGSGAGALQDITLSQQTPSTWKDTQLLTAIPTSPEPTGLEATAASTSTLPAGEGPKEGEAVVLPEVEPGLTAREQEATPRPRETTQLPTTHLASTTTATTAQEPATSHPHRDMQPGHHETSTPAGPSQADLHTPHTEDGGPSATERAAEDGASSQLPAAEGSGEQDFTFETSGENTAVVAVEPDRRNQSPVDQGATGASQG
Method: (§1) The unbound biotinylation reagent was removed using protein desalting columns. Immobilization of bCD138 The sensorchip (SENSOR CHIP SA, BIACORE AB) used in the BIACORE assay is designed to bind biotinylated molecules for interaction analysis in BIACORE systems. The surface consists of a carboxymethylated dextran matrix pre-immobilized with streptavidin and ready for high-affinity capture of biotinylated ligands. Immobilization of bCD138 was performed on SENSOR CHIP SA using a flow rate of 10 μL/min by manual injection. The chip surface was conditioned with three consecutive 1-minute injections of 1 M NaCl in 50 mM NaOH.
(§2) The software of BIACORE C uses pre-defined masks, so called “Wizards” for different experiments where only certain settings can be changed. As the BIACORE C was originally developed to measure concentrations, there is no wizard designed to carry out affinity measurements. […] With this wizard, two flow cells were measured and the dissociation phase was set to 90 s by performing the “Regeneration 1” with BIACORE running buffer. […] The dissociation equilibrium constants were determined by calculating the rate constants ka and kd. Afterwards, the KD-values of the analytes were calculated by the quotient of kd and ka with the BIAevaluation software.

[4] = molecular target: T2, Soluble CD138 antigen from U-266 cell …; assay: SPR (BIACORE C), mean of three independent experiments, biotinylated soluble CD138 on streptavidin chip
Method: as §1, §2

Binder	EC50 (read off the curve) [2]	also measured
B1		IC50 (read off the curve); surviving fraction of MOLP-8 cells (WST viability assay, 5 days), curve 'w/o blocking' [1]: ~0.08 nM
B2	~1 nM	
B3	~1 nM	
B4	~1 nM	
B5		Kd [3]: 2.6 nM and 2.7 nM; Kd [4]: 2.6 nM
